Reference: patent US20210214430A1 (Regeneron, published 2021)

B1: mAb1 (a mouse anti-VEGFR1 mAb human IgG1) (antibody)
heavy: not shown
light: DIQMTQSPSSLSASLGGKVTITCTTSQDSNNYIAWYQHKPGKGPRLLIHYASTLQPGIPSRFSGSGSGRDYSFSISNLEPEDIATYFCLQYDYLWTFGGGTKLELKRTVAAPSVFIFPPSDEQLKSGTASVVCLLNNFYPREAKVQWKVDNALQSGNSQESVTEQDSKDSTYSLSSTLTLSKADYEKHKVYACEVTHQGLSSPVTKSFNRGEC
notes: Also amine-coupled to the Biacore chip to capture MT5
B2: mAb2 (a mouse anti-VEGFR1 mAb human IgG1) (antibody, V domains shown)
VH: EVQLVESGGDLVKPGGSLKLSCAASGFTFSDSGMSWVRQTPDKRLEWVATISSGGGYTYYSDSVEGRFTISRDNANNTLFLQMSSLKSEDTAMFYCARLGNYGGYYGMDYWGQGTSVTVSS
VL: DIQMTQSPSSLSASLGGKVTITCKTSQDSNKYIAWYQHKPGKGPRLLIHYTSTLQPGIPSRFSGSGSGRDYSFSISNLEPEDIATYYCLQYDNLWTFGGGTKLEIKR
notes: also called column 3
B3: recombinant VEGF MiniTrap (dimer) MT5 (receptor)
chain: SDTGRPFVEMYSEIPEIIHMTEGRELVIPCRVTSPNITVTLKKFPLDTLIPDGKRIIWDSRKGFIISNATYKEIGLLTCEATVNGHLYKTNYLTHRQTNTIIDVVLSPSHGIELSVGEKLVLNCTARTELNVGIDFNWEYPSSKHQHKKLVNRDLKTQSGSEMKKFLSTLTIDGVTRSDQGLYTCAASSGLMTKKNSTFVRVHEKDKTHTCPPCPAPELLG
notes: also called VEGF MiniTrap 5
B4: mAb3 (a mouse anti-VEGFR1 mAb mouse IgG1) (antibody)
heavy: EVQLVESGGDLVKPGGSLKLSCAASGFTFSSSGMSWVRQTPDKRLEWVATITSGGSYTYYPDSVKGRFTISRDNAKNTLYLQMSSLKSEDTAMFYCARLGNYGGYYAMDYWGQGTSVTVSSAKTTPPSVYPLAPGSAAQTNSMVTLGCLVKGYFPEPVTVTWNSGSLSSGVHTFPAVLQSDLYTLSSSVTVPSSTWPSETVTCNVAHPASSTKVDKKIVPRDCGCKPCICTVPEVSSVFIFPPKPKDVLTITLTPKVTCVVVDISKDDPEVQFSWFVDDVEVHTAQTQPREEQFNSTFRSVSELPIMHQDWLNGKEFKCRVNSAAFPAPIEKTISKTKGRPKAPQVYTIPPPKEQMAKDKVSLTCMITDFFPEDITVEWQWNGQPAENYKNTQPIMDTDGSYFVYSKLNVQKSNWEAGNTFTCSVLHEGLHNHHTEKSLSHSPGK
light: DIQMTQSPSSLSASLGGKVTITCTTSQDSNNYIAWYQHKPGKGPRLLIHYASTLQPGIPSRFSGSGSGRDYSFSISNLEPEDIATYFCLQYDYLWTFGGGTKLELKRADAAPTVSIFPPSSEQLTSGGASVVCFLNNFYPKDINVKWKIDGSERQNGVLNSWTDQDSKDSTYSMSSTLTLTKDEYERHNSYTCEATHKTSTSPIVKSFNRGEC
notes: also called column 4

What was measured:
[1] = biological target: B3; assay: affinity chromatography on immobilized mAb1, low-pH eluate on non-reducing SDS-PAGE
Experimental: (§1) The column was activated by washing the columns with 6 column volumes (CV) of 1 mM ice-cold hydrochloric acid at a flow rate not exceeding 1 mL/min. […] The columns were washed with 18 column volumes of 0.5 M sodium acetate, 0.5 M NaCl, pH 4.0 and the open sites were blocked with 18 column volumes of 0.5 M Tris-HCl, 0.5 M NaCl pH 8.3 (the wash was carried out in the following order: 6 column volumes of 0.5 M Tris-HCl, 0.5 M NaCl, pH 8.3; 6 column volumes of 0.5 M sodium acetate (sodium acetate: JT Baker, Cat #3470-01), 0.5 M NaCl, pH 4.0; 6 column volumes of 0.5 M Tris, pH 8.3; incubate the column for 30 minutes at room temperature; 6 column volumes of 0.5 M sodium acetate buffer, 0.5 M NaCl pH 4.0; 6 column volumes of 0.5 M Tris-HCl, 0.5 NaCl, pH 8.3 and 6 column volumes of 0.5 M sodium acetate buffer, 0.5 M NaCl pH 4.0). The columns were stored in DPBS, pH 7.5. The five columns evaluated are designated as column 1 (comprising VEGF₁₆₅), column 2 (comprising mAb1), column 3 (comprising mAb2), column 4 (comprising mAb3) and column 5 (comprising mAb4).
(§2) SDS-PAGE analysis of the eluted fractions from the three columns (column 1, column 2, and column 3) was performed. […]

[2] = biological target: B3; assay: affinity chromatography on immobilized mAb2, low-pH eluate on non-reducing SDS-PAGE
Experimental: as §1, §2

VEGF165 = biological target: T1, VEGF165 (human, UniProt P15692 207-395); assay: SPR, Biacore T200, 25 C; MT5 captured on amine-coupled mAb1, VEGF165 injected at 0.03-2 nM; 1:1 Langmuir fit; conditions: loading solution before affinity chromatography
T1 construct: also called hVEGF165
Experimental: All binding studies were performed in 10 mM HEPES, 150 mM NaCl, 3 mM EDTA, and 0.05% v/v Surfactant Tween-20, pH 7.4 (HBS-ET) running buffer at 25° C. The Biacore sensor surface was first derivitized by amine coupling with a mAb 1 to capture MT5.
Briefly, the eluates from the columns and loading solution were diluted into an HBS-EP (Biacore) buffer and injected across the immobilized protein matrices at a capture level of ˜70 RUs. The VEGF₁₆₅ was then injected at a flow rate of 50 μL/min. Equivalent concentration of analyte was simultaneously injected over an untreated reference surface to serve as blank sensorgrams for subtraction of bulk refractive index background. The sensor chip surface was regenerated between cycles with two 5-min injections of 10 mM Glycine, at 25 μL/min. The resultant experimental binding sensorgrams were then evaluated using the BIA evaluation 4.0.1 software to determine kinetic rate parameters. Datasets for each sample were fit to the 1:1 Langmuir model. For these studies, binding and dissociation data were analyzed under the Global Fit Analysis protocol while selecting fit locally for maximum analyte binding capacity (RU) or Rmax attribute. In this case, the software calculated a single dissociation constant (kd), association constant (ka), and affinity constant (Kd). The equilibrium dissociation constant is KD=kd/ka. […] The dissociative half-lives (t½) were calculated from the kinetic rate constants as: t_{1/2}=ln(2)/60*[…]. Binding kinetic parameters for MT5 to VEGF₁₆₅ obtained from before and after the affinity chromatography production at 25° C. are shown in Table 7-6.

[3] = biological target: B3; assay: affinity chromatography, antibody coupled to HiTrap NHS-activated column (column 4)

T1 sequence (P15692 other isoform, or with tags, fused parts or gaps limits assumed): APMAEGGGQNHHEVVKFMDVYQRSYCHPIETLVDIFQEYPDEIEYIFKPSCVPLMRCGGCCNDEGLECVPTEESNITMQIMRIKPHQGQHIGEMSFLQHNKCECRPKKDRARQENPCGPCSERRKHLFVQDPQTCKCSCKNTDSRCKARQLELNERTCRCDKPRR

Binder: B1
binding result [1]: binds

Binder: B2
binding result [2]: binds

Binder: B3
Kd (VEGF165): 1.84 pM | koff (VEGF165): 1.74e-05 s⁻¹ | kon (VEGF165): 9.44e+06 M⁻¹ s⁻¹ | t1/2 (dissociative half-life) (VEGF165): 11.1 h

Binder: B4
binding result [3]: binds
